A word on the Kd: it is the constant that tells how readily two partners part at equilibrium. A word on the koff: it is the rate constant with which the complex falls apart. A low value points to a long-lived complex. As a reminder, the kon is the rate constant with which the complex forms. Read a low kon as slow association. By IC50 is commonly meant the concentration that inhibits the measured activity by half. A lower IC50 goes with inhibition by little substance.

Sequences and labels used below:
T1: human IL-11Rα (human, UniProt Q14626 23-363, limits assumed)
T1 construct: Protein coated on ELISA plates and used in solution for BLI; also called hIL-11Rα; hIL-11R
T1 sequence: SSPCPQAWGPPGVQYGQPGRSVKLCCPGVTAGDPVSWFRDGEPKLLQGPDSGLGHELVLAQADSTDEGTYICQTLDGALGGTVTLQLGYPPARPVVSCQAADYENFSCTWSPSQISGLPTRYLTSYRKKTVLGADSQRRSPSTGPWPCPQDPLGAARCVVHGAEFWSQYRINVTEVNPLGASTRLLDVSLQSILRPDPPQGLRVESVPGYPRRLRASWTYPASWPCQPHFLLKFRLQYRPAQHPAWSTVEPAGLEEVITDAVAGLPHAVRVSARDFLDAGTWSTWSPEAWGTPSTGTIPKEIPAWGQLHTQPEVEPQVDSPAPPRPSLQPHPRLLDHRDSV

T2: IL-11R on STAT3 Reporter (Luciferase)-HEK293 cells (UniProt Q14626 23-422)
T2 sequence (looked up): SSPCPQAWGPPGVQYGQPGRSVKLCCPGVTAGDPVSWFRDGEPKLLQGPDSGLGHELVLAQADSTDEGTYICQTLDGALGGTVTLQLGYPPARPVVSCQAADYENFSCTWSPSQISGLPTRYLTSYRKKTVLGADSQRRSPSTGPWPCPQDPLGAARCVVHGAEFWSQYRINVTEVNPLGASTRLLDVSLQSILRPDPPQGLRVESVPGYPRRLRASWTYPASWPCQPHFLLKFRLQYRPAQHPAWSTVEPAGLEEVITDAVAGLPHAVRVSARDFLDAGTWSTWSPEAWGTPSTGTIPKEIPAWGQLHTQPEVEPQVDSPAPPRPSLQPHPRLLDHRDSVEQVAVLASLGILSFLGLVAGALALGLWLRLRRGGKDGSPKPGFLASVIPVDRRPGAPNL

B1: mAb5 (antibody, V domains shown)
VH: EVQLLESGGGLVQPGGSLRLSCAASGFTFSWYSMTWVRQAPGKGLEWVSSIVPYGDLTQYADSVKGRFTISRDNSKNTLYLQMNSLRAEDTAVYYCAKGPGWGSFDLWGRGTLVTVSS
VL: DIQMTQSPSSLSASVGDRVTITCQASQDINNYLNWYQQKPGKAPKLLIYDASNLQTGVPSRFSGSGSGTDFTFTISSLQPEDIATYYCQQHESQSPTFGPGTKVDIK
notes: Expressed as human IgG4 (S228P EU); also called mAb5 IL11RA Ab
B2: mAb7 (antibody, V domains shown)
VH: B1 VH with W31N, S33A, T35S
VL: B1 VL
notes: Expressed as human IgG4 (S228P EU)
B3: mAb15 (antibody, V domains shown)
VH: B1 VH
VL: B1 VL with S93T, S95T
notes: as for B2
B4: mAb10 (antibody, V domains shown)
VH: B1 VH with P53A
VL: B1 VL
notes: as for B2
B5: mAb13 (antibody, V domains shown)
VH: B1 VH with G99P, P100E, G101D, S104R
VL: B1 VL
notes: as for B2
B6: mAb6 (antibody, V domains shown)
VH: B1 VH
VL: B1 VL with S93F
notes: as for B2
B7: mAb11 (antibody, V domains shown)
VH: B1 VH with P53D
VL: B1 VL
notes: as for B2
B8: mAb12 (antibody, V domains shown)
VH: B1 VH with G103Y
VL: B1 VL
notes: as for B2
B9: mAb14 (antibody, V domains shown)
VH: B1 VH with D62E
VL: B1 VL
notes: as for B2
B10: mAb8 (antibody, V domains shown)
VH: B1 VH with W31S, S33A, T35S
VL: B1 VL
notes: as for B2
B11: mAb9 (antibody, V domains shown)
VH: B1 VH with S50G
VL: B1 VL
notes: as for B2
B12: mAb3 (antibody, V domains shown)
VH: B1 VH with G101D
VL: B1 VL
notes: as for B2
B13: mAb4 (antibody, V domains shown)
VH: B1 VH with G101D
VL: B1 VL with S93F
notes: as for B2
B14: mAb2 (antibody, V domains shown)
VH: B1 VH with Y54S, D56G, L57H, G101D
VL: B1 VL with S93F
notes: as for B2

Numbering of substitutions follows the chain as printed. Names may count otherwise.

The target in one assay is T1, human IL-11Rα. The assay can be described thus: BLI (Octet RED96e), mAb on protein G biosensors, hIL-11Rα in solution. How it is done: Association was carried out in the presence of a 2-fold dilution series of hIL-11Rα and was allowed to proceed for 120 seconds; dissociation was measured for 300 to 1200 seconds.
Background: Biolayer interferometry detects binding as a change in optical thickness at a sensor tip.
As to B1, the Kd is less than 1 pM, the koff is less than 1e-07 s⁻¹ and the kon turned out to be 63700 M⁻¹ s⁻¹.
The corresponding values for B2 are less than 1 pM, less than 1e-07 s⁻¹ and 63500 M⁻¹ s⁻¹.
As to B3, the Kd is less than 1 pM, the koff was less than 1e-07 s⁻¹ and the kon came to 84000 M⁻¹ s⁻¹.
Turning to B4, the Kd is 496 pM, the koff was found to be 0.000416 s⁻¹ and the kon was 840000 M⁻¹ s⁻¹.
In the case of B5, the Kd was less than 1 pM, the koff is less than 1e-07 s⁻¹ and the kon was determined as 66700 M⁻¹ s⁻¹.
In turn, B6 registered a Kd of less than 1 pM, a koff of less than 1e-07 s⁻¹ and a kon of 800000 M⁻¹ s⁻¹.
The corresponding values for B7 are 550000 pM, 0.0181 s⁻¹ and 32900 M⁻¹ s⁻¹.
The corresponding values for B8 are less than 1 pM, less than 1e-07 s⁻¹ and 58100 M⁻¹ s⁻¹.
The molecule B9 had a Kd of less than 1 pM, a koff of less than 1e-07 s⁻¹ and a kon of 33700 M⁻¹ s⁻¹.
In the case of B10, the Kd was less than 1 pM, the koff is less than 1e-07 s⁻¹ and the kon was 65100 M⁻¹ s⁻¹.
The corresponding values for B11 are less than 1 pM, less than 1e-07 s⁻¹ and 62200 M⁻¹ s⁻¹.

The next assay concerns the target T2, IL-11R on STAT3 Reporter …. The assay can be described thus: cell-based or functional assay.
B1: the “IC50, STAT3 luciferase reporter assay (HEK293), inhibiting IL-11, Assay 1” value (“IC50 … inhibiting IL-11, Assay 1” for short) worked out at 0.16 µg/mL; the “IC50, STAT3 luciferase reporter assay (HEK293), inhibiting IL-11, Assay 2” value (“IC50 … inhibiting IL-11, Assay 2” for short) was 0.18 µg/mL; the “IC50, STAT3 luciferase reporter assay (HEK293), inhibiting IL-11, Mean” value (shortened to “IC50 … inhibiting IL-11, Mean”) came out at 0.17 µg/mL.
For the molecule B2, the “IC50 … inhibiting IL-11, Assay 1” value stood at 1 µg/mL and the “IC50 … inhibiting IL-11, Mean” value worked out at 1 µg/mL.
B3: the “IC50 … inhibiting IL-11, Assay 1” value was determined as 0.38 µg/mL; the “IC50 … inhibiting IL-11, Assay 2” value was found to be 0.33 µg/mL; the “IC50 … inhibiting IL-11, Mean” value was 0.36 µg/mL.
Take B4: the “IC50 … inhibiting IL-11, Assay 1” value was determined as 2 µg/mL and the “IC50 … inhibiting IL-11, Mean” value worked out at 2 µg/mL.
For the molecule B5, the “IC50 … inhibiting IL-11, Assay 1” value amounted to 0.05 µg/mL; the “IC50 … inhibiting IL-11, Assay 2” value came to 0.19 µg/mL; the “IC50 … inhibiting IL-11, Mean” value is 0.12 µg/mL.
For B6, the “IC50 … inhibiting IL-11, Assay 1” value came to 11 µg/mL; the “IC50 … inhibiting IL-11, Assay 2” value was 0.39 µg/mL; the “IC50 … inhibiting IL-11, Mean” value was found to be 5.7 µg/mL.
B7: the “IC50 … inhibiting IL-11, Assay 1” value is more than 100 µg/mL and the “IC50 … inhibiting IL-11, Mean” value is more than 100 µg/mL.
Regarding B8, the “IC50 … inhibiting IL-11, Assay 1” value worked out at 0.42 µg/mL; the “IC50 … inhibiting IL-11, Assay 2” value was found to be 0.39 µg/mL; the “IC50 … inhibiting IL-11, Mean” value was found to be 0.41 µg/mL.
The corresponding values for B9 are 0.39 µg/mL, 0.28 µg/mL and 0.34 µg/mL.
The corresponding values for B10 are 0.67 µg/mL, 1.25 µg/mL and 0.96 µg/mL.
The corresponding values for B11 are 0.11 µg/mL, 0.1 µg/mL and 0.1 µg/mL.

In another assay the target is T1, human IL-11Rα. The assay is described as follows: competitive ELISA, IL-11R coated on plate; competitor: biotinylated 8E2 (0.1 µg/mL). As for the experimental part: (§1) Relative binding activity of the antibodies was tested by competitive ELISA using biotinylated mAbs 8E2 or TS7. Antibodies 8E2 and TS7 were biotinylated using sulfo-NHS Biotin (Thermo Fisher) per the manufacturer's instructions. IL-11R was coated onto ELISA plates (Nunc, MaxiSorp) at 2 μg/mL in PBS, and plates were blocked with 2% BSA in PBS. After washing the plate with water, antibodies to be tested were titrated across the plate in a final volume of 90 μL followed by addition of 10 μL of biotinylated 8E2 or biotinylated TS7, as indicated in Table E1 (0.1 μg/mL final concentration) to each well. Plates were incubated for 2 hours on a plate-shaker, followed by washing and addition of 100 μL/well of streptavidin-HRP (Jackson ImmunoResearch, 1/1000 dilution). After a further 1 hour incubation, plates were washed, developed with Ultra-TMB HRP substrate (Thermo Fisher), and stopped by the addition of 50 μL/well of 2 M sulfuric acid. Plates were read at 450 nm on an iD5 plate reader (Molecular Devices).
For orientation: An ELISA detects its analyte on a solid surface through an enzyme-linked reagent.
As to B1, the IC50 is 1.4 µg/mL.
On the same count and under the same terms, the same measure for B12: 2.8 µg/mL.
B13 showed an IC50 of 5.5 µg/mL.
B6 showed an IC50 of 1.5 µg/mL.
The same measure, in the same setting: with B14 the figure was more than 30 µg/mL.

The target of the next assay is T1, human IL-11Rα. The assay is described as follows: BLI (Octet RED96e), mAb on anti-human constant domain (AHC) biosensors, hIL-11R in solution. An excerpt:
A further series of antibodies were designed in which the residue at Kabat position 31 of the heavy chain was varied (mAbs 16-32). In this case an alternate biolayer interferometry assay was used to initially rank the antibodies compared to mAb5, the closest relative in sequence to mAbs 16-32. MAbs were loaded onto anti-human constant domain (AHC) biosensors (FortdBio) in 10× kinetics buffer consisting of PBS, 0.1% BSA, 0.02% Tween 20 for 120 s to achieve a spectral shift value of 0.8 to 1.2 nm. Association was carried out in the presence of 2-fold dilution series of hIL-1 IR and was allowed to proceed for 120 s. Dilution series started 10 nM. The dissociation in 10× kinetics buffer for 1200 s. Binding kinetic measurements were taken on an Octet RED96e instrument.
Consider B1, for which the Kd was 0.05 nM, the koff is 2.5e-05 s⁻¹ and the kon was found to be 490000 M⁻¹ s⁻¹.

The target in the next assay is T1, human IL-11Rα. The assay is described as follows: competitive ELISA, IL-11R coated on plate; competitor: biotinylated TS7 (0.1 µg/mL). As for the experimental part: as §1
Consider B1, for which the IC50 stood at 2.1 µg/mL.
On the same count and under the same terms, with B2 the figure was 6.9 µg/mL; with B3, 1.7 µg/mL.
For B4, the IC50 is more than 15 µg/mL.
On the same count and under the same terms, the same measure for B5: 2.3 µg/mL; for B7: more than 15 µg/mL.
With B8, the IC50 was 3.6 µg/mL.
Same read-out and setting: with B9 the figure was 2 µg/mL; with B10, 6.2 µg/mL; with B11, 2.3 µg/mL.

These data come from US20240425606A1, “ANTI-IL-11RA ANTIBODIES” (Lassen Therapeutics 1, Inc., priority 2021, published 2024).
